Experimental data published in article PMC5493754, “Myosin 7 and its adaptors link cadherins to actin” (Nature Communications, 2017).

Columns and labels:
Test in all cases: MST; YFP-fused partner held together with a third protein (saturating concentrations; competition experiments), non-fluorescent protein titrated
Conditions in all cases: both partners purified
[1] = biological target: T1, SANS_(CEN-PBM) with YFP-FL-harmonin-ΔCter ( | human, UniProt Q495M9 300-461; Q9Y6N9-1 1-542)
T1 construct: SANS (USH1G), residues 300-461 of UniProt Q495M9; as m41; Harmonin-a1 (USH1C), human, residues 1-542 of UniProt Q9Y6N9-1; as m28; also called SANS_(CEN-PBM)+^YFPFL ΔCter; source: purified E. coli proteins mixed
T1 sequence (looked up) 1: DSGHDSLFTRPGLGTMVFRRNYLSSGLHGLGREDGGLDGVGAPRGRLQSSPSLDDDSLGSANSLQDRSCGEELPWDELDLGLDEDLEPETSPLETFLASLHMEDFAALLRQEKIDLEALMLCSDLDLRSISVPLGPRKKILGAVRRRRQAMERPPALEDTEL
T1 sequence (looked up) 2: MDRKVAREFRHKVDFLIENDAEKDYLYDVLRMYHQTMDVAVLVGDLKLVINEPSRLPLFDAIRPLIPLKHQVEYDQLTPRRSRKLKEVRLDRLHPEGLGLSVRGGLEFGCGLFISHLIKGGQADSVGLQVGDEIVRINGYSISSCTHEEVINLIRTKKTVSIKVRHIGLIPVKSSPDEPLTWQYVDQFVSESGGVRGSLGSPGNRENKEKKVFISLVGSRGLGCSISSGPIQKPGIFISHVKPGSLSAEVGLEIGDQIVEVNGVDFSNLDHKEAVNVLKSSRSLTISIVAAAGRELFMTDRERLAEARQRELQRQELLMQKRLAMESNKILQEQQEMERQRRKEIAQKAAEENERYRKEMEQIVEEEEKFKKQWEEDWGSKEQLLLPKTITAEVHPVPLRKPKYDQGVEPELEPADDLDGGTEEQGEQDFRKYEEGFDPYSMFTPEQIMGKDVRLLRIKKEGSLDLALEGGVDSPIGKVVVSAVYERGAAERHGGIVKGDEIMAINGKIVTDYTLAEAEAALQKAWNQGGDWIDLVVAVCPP

[2] = biological target: T2, YFP-ANKS4B_(CEN-PBM) with harmonin NPDZ1.PDZ2 (human, UniProt Q8N8V4 259-417; Q9Y6N9-1 1-301)
T2 construct: ANKS4B, human, residues 259-417 of UniProt Q8N8V4; as m42; Harmonin-a1 (USH1C), human, residues 1-301 of UniProt Q9Y6N9-1; as m30; also called ^YFPANKS4b+NPDZ1.PDZ2; source: purified E. coli proteins mixed; not shown: YFP, N-terminal, kept
T2 sequence (looked up) 1: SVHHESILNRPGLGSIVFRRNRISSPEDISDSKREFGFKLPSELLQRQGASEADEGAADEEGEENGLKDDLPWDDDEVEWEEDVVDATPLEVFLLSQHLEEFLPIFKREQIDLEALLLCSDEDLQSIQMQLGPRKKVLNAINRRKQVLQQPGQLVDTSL
T2 sequence (looked up) 2: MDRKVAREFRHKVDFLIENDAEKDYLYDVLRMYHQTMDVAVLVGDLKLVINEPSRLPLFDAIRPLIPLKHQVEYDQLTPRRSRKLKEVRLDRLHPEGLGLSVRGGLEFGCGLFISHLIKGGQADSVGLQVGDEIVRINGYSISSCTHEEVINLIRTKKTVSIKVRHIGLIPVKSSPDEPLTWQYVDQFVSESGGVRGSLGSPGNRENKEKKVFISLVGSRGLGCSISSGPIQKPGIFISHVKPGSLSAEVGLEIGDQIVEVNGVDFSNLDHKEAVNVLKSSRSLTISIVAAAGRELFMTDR

[3] = biological target: T3, SANS_(CEN-PBM) with YFP-harmonin NPDZ1.PDZ2 ( | human, UniProt Q495M9 300-461; Q9Y6N9-1 1-301)
T3 construct: SANS (USH1G), residues 300-461 of UniProt Q495M9; as m41; Harmonin-a1 (USH1C), human, residues 1-301 of UniProt Q9Y6N9-1; as m31; also called SANS_(CEN-PBM)+^YFPNPDZ1.PDZ2; source: purified E. coli proteins mixed
T3 sequence (looked up) 1: T1 sequence (looked up) 1
T3 sequence (looked up) 2: T2 sequence (looked up) 2

[4] = biological target: T4, ANKS4B_(CEN-PBM) with YFP-harmonin NPDZ1.PDZ2 (human, UniProt Q8N8V4 259-417; Q9Y6N9-1 1-301)
T4 construct: ANKS4B, human, residues 259-417 of UniProt Q8N8V4; as m43; Harmonin-a1 (USH1C), human, residues 1-301 of UniProt Q9Y6N9-1; as m31; also called ANKS4b+^YFPNPDZ1.PDZ2; ^YFPNPDZ1.PDZ2+ANKS4B_(CEN-PBM); source: purified E. coli proteins mixed
T4 sequence (looked up) 1: T2 sequence (looked up) 1
T4 sequence (looked up) 2: T2 sequence (looked up) 2

Measured: Kd

B1: Harmonin-a PDZ3c (non-fluorescent, as used in MST) (domain or fragment, human, UniProt Q9Y6N9-1 428-552, looked up)
chain: QDFRKYEEGFDPYSMFTPEQIMGKDVRLLRIKKEGSLDLALEGGVDSPIGKVVVSAVYERGAAERHGGIVKGDEIMAINGKIVTDYTLAEAEAALQKAWNQGGDWIDLVVAVCPPKEYDDELTFF
notes: Harmonin-a1 (USH1C), human, PDZ3 plus C-terminal peptide, residues 428-552 of UniProt Q9Y6N9-1; The methods say only that samples for ITC or crystallisation were digested with TEV protease; also called PDZ3c (isoA); source: E. coli BL21 (DE3) Rosetta, purified (Glutathione Sepharose 4B, size-exclusion chromatography)
> 100 µM: all assays above
